Source: patent US20100093076A1, “SOLUBLE IL-27 RECEPTOR” (priority 2006, published 2010)

Assays:
[1] = Pharmacokinetics of soluble receptors in female C57B1/6 mice (serum ELISA, noncompartmental analysis); type: in vivo, mouse; conditions: 100 μg; for AUCINF: extrapolated to infinity
Method: Studies were performed to evaluate the pharmacokinetics of the mouse (IL-27RAm(mFc1)) and human (IL-27RA-Fc5) soluble receptors in female C57B1/6 mice.
Serum was generated from each sample and analyzed by a qualified enzyme-linked immunosorbant assay (ELISA). The resulting mean serum concentration versus time profiles were then subjected to noncompartmental pharmacokinetic analyses. The following pharmacokinetic parameters were calculated: C0 and Cmax (extrapolated concentration at time zero and maximum serum concentration, respectively), Tmax (time to achieve maximum concentration), t1/2 λz (terminal half-life), AUC0-t (area under the concentration versus time curve from time zero to the last measurable time point), AUCINF (area under the concentration versus time curve extrapolated to infinity), C1 or C1/F (clearance or clearance divided by bioavailable fraction, respectively), VSS or VZ/F (steady state volume of distribution or volume of distribution divided by the bioavailable fraction, respectively), and F (bioavailable fraction).

[2] = system: acute graft-vs-host disease; assay: Mouse model of acute graft-vs-host disease; type: in vivo; conditions: acute GVHD
Method: Efficacy of IL-27 antagonists was assayed in a mouse model of acute graft-vs-host disease (Durie et al., J. Clin. Invest. 94:1333-1338, 1994). Parental mice (C57BL/6; n=12) were euthanized, and their spleens were collected. The pooled spleens were smashed using two glass slides to dissociate splenic cells. Lysis buffer was added to the splenocyte suspension to remove red blood cells. The cells were washed in RPMI 1640 (10% FBS) medium and resuspended in an appropriate amount of PBS to make a cell concentration of 300 million cells/ml. Protein treatments were administered by intraperitoneal injection every other day beginning on day-1 and continuing until day 15. Dexamethasone (DEX) was administered by injection daily on days 0 through 6. On day 0, 75 million donor splenic lymphocytes from B6 mice (250.micro.1 per injection) were injected intravenously into recipient mice (C57BL/6×DBA/2 F1 (BDF1); n=10 per group) mice. Mice were monitored 3 times a week for changes in body weight and any signs of moribundity. Mice that lost >20% of their initial body weight were euthanized. Otherwise, mice were sacrificed 18 days after the cell transfer. Spleens were collected, and a CTL-specific lysis assay using P815 cells was performed as a quantitative measurement of acute GVHD. Furthermore, spleens were stained for T- and B-cell markers, including MHC class I markers (H2^b and H2^d) to look at donor/recipient cell ratio (acute GVHD spleen cells are mostly donor cells). Sera were collected to measure serum level of IgG1, IgG2a, and IgE by ELISA, and cytokine and chemokine levels using a commercially available kit (Luminex Corporation, Austin, Tex.).

P815 cells = assay: CTL-specific lysis assay with splenocytes of GVHD mice; type: cell-based, mouse; conditions: splenocytes of treated GVHD mice against calcein-labeled P815 cells; versus PBS group
Method: Efficacy of IL-27 antagonists was assayed in a mouse model of acute graft-vs-host disease (Durie et al., J. Clin. Invest. 94:1333-1338, 1994). Parental mice (C57BL/6; n=12) were euthanized, and their spleens were collected. The pooled spleens were smashed using two glass slides to dissociate splenic cells. Lysis buffer was added to the splenocyte suspension to remove red blood cells. The cells were washed in RPMI 1640 (10% FBS) medium and resuspended in an appropriate amount of PBS to make a cell concentration of 300 million cells/ml. Protein treatments were administered by intraperitoneal injection every other day beginning on day-1 and continuing until day 15. Dexamethasone (DEX) was administered by injection daily on days 0 through 6. […] Mice were monitored 3 times a week for changes in body weight and any signs of moribundity. […] Spleens were collected, and a CTL-specific lysis assay using P815 cells was performed as a quantitative measurement of acute GVHD. […]
For CTL assay, P815 cells (a tumor cell line from mice with the same MHC class as DBA2) were labeled with calcein, then splenocytes from each experimental animal were added to the calcein-labeled P815 cells at effector (splenocytes):target (P815) ratios of 100:1, 33:1, and 10:1. Four hours after incubation at 37° C., supernatants were collected and fluorescence was measured (485 nm/535 nm).

For “human IL-27RA-Fc5: Extracellular domain of human IL27RA (amino acids 1 to 512 of SEQ ID NO:3) fused to Fc5, effector minus human gamma1 Fc; SEQ ID NO:16”, the AUC0-120 ([1]; IP) was 1310 µg·h/mL, the Cl/F ([1]; IP) was 0.0725 mL/h and the Tmax ([1]; IP) was 3 h. The “t1/2 λz (terminal half-life)” value ([1]; IP) was 28.3 h, the Cmax ([1]; IP, mouse serum) was 35200 ng/mL and the AUCINF ([1]; IP) was 1380 µg·h/mL. The AUC0-120 ([1]; IV) was 1400 µg·h/mL, the Cl ([1]; IV) was 0.0664 mL/h and the Vss ([1]; IV) was 2.54 mL. For the same substance, the “t1/2 λz (terminal half-life)” value ([1]; IV) was 34.9 h, the “Co (extrapolated concentration at time zero)” value ([1]; IV, mouse serum) was 122 µg/mL and the AUCINF ([1]; IV) was 1510 µg·h/mL. It also gave an AUC0-120 ([1]; SC) of 1130 µg·h/mL, a Cl/F ([1]; SC) of 0.0828 mL/h and a Tmax ([1]; SC) of 6 h. The “t1/2 λz (terminal half-life)” value ([1]; SC) was 29.3 h, the Cmax ([1]; SC, mouse serum) was 21000 ng/mL and the AUCINF ([1]; SC) was 1210 µg·h/mL. The colon length shortening [2] was “did prevent colon length shortening”, the splenomegaly [2] was “did not prevent splenomegaly” and the “host spleen cells, CD4+T cells, and Treg cells” value ([2]; BDF1 recipients, day 18) was “maintained host spleen cells, CD4+T cells, and Treg cells”. For the same substance, the Body weight loss ([2]; versus PBS control group) was “not severe and was significantly less than in the PBS control group”, the IL-2 level ([2]; serum, arrows, key not given) was “↑↑↑” and the IL-5 level ([2]; serum, arrows, key not given) was “↑↑”. The IL-6 level ([2]; serum, arrows, key not given) was “↓↓↓”, the IgE level ([2]; serum, arrows, key not given) was “↑” and the IgG1 level ([2]; serum, arrows, key not given) was “↑↑”. For the same substance, the IgG2A level ([2]; serum, arrows, key not given) was “↑↑” and the CTL activity (P815 cells) was “reduced CTL activity compared to the PBS group”.
